Test results: patent publication US20110077210A1 (published 2011)

How the values were obtained:
[1] = molecular target: HDAC1-flag (Homo sapiens (Human), UniProt Q13547 1-482); experiment: cell-based or functional assay
[2] = molecular target: T1, full length HDAC1 (yeast two-hybrid bait) (Homo sapiens (Human), UniProt Q13547 1-482); experiment: yeast two-hybrid screen
T1 construct: also called histone deacetylase 1
T1 sequence (Q13547 whole entry): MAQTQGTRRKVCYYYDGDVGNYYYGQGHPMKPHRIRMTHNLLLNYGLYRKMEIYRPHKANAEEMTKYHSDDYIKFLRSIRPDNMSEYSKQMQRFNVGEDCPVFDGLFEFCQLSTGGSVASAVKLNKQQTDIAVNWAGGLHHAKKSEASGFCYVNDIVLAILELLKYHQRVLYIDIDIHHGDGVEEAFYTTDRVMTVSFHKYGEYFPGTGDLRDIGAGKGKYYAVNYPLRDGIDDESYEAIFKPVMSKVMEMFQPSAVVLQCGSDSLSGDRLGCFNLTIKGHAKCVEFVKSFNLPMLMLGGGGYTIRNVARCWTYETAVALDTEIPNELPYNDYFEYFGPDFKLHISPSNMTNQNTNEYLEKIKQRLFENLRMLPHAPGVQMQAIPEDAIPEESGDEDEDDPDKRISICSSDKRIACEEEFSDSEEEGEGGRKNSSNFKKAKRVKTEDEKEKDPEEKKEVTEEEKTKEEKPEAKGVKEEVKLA

Chain of HDAC1-flag (Q13547 whole entry): as above

B1: V5-APPL (full length APPL protein) (other, not shown: small tags and cut ends)
chain: MPGIDKLPIEETLEDSPQTRSLLGVFEEDATAISNYMNQLYQAMHRIYDAQNELSAATHLTSKLLKEYEKQRFPLGGDDEVMSSTLQQFSKVIDELSSCHAVLSTQLADAMMFPITQFKERDLKEILTLKEVFQIASNDHDAAINRYSRLSKKRENDKVKYEVTEDVYTSRKKQHQTMMHYFCALNTLQYKKKIALLEPLLGYMQAQISFFKMGSENLNEQLEEFLANIGTSVQNVRREMDSDIETMQQTIEDLEVASDPLYVPDPDPTKFPVNRNLTRKAGYLNARNKTGLVSSTWDRQFYFTQGGNLMSQARGDVAGGLAMDIDNCSVMAVDCEDRRYCFQITSFDGKKSSILQAESKKDHEEWICTINNISKQIYLSENPEETAARVNQSALEAVTPSPSFQQRHESLRPAAGQSRPPTARTSSSGSLGSESTNLAALSLDSLVAPDTPIQFDIISPVCEDQPGQAKAFGQGGRRTNPFGESGGSTKSETEDSILHQLFIVRFLGSMEVKSDDHPDVVYETMRQILAARAIHNIFRMTESHLLVTCDCLKLIDPQTQVTRLTFPLPCVVLYATHQENKRLFGFVLRTSSGRSESNLSSVCYIFESNNEGEKICDSVGLAKQIALHAELDRRASEKQKEIERVKEKQQKELNKQKQIEKDLEEQSRLIAASSRPNQASSEGQFVVLSSSQSEESDLGEGGKKRESEA
HDAC1 activity: release of [3H]acetic acid from an [3H]acetyl-labeled histone H4 peptide by immunoprecipitated HDAC1 [1]: ~4 fold

B2: fragment of APPL (aa 489-639) identified in the yeast two-hybrid screen (other)
chain: TKSETEDSILHQLFIVRFLGSMEVKSDDHPDVVYETMRQILAARAIHNIFRMTESHLLVTCDCLKLIDPQTQVTRLTFPLPCVVLYATHQENKRLFGFVLRTSSGRSESNLSSVCYIFESNNEGEKICDSVGLAKQIALHAELDRRASEKQ
notes: Prey from a human brain cDNA library; The fragment fully overlaps the PTB domain (aa 500-634); also called APPL-PTB; fragment of DIP13alpha
binding result [2]: binds
